# Measured values published in the nanobody polyreactivity screen of Harvey et al. (2022).
# Test: yeast display, Sf9 membrane polyspecificity reagent, FACS + sequencing; frameworks hold sequencing errors
# How it was run: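 Nanobodies from a synthetic yeast display library (Saccharomyces cerevisiae BJ5465), induced 36–48 hours with galactose, were stained 1 hour at 4 °C with 10% biotinylated, detergent-solubilized Sf9 membrane reagent, enriched on streptavidin microbeads, then FACS-sorted. Anti-HA (expression) and streptavidin (reagent binding) fluorescence set low and high (top ~1%) gates. Polyreactivity labels come from the gate of origin. Genes were colony-PCR amplified, MiSeq 2 × 250 sequenced and filtered by CDR length.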
row,Sequence,polyreactivity (PSR sort gate)
1,EEELVESGGGLVQAGGSLLLSCAAYGRILPRNDMGWYRQAPGKERELVAVISSGGSTYYPDSVKGRFTISRDNAKNTVYLQINSVKPEDTAVYYCLGGYYYLQYDYWGQGTQVTVSS,low polyreactivity
2,EEELVESGGGLVQAGGSLRLSCAASARISTVMLWDWYRQAPGKDRELVAAITKSGGSTYYADSVKGRFTISRDNAKNTVYLQMNSLIPEDTAVYYCAADRYAILFYAEDYWGQGTQETVSS,low polyreactivity
3,EEELVESGGGLVQAGGSLRLSCAASGNIFEVNTMGWYRQAPGKERELVAAITSTGSTNYADSVKGRFTISRDNAKNTVYLQMNSLKPVDTAVYYSSATLEWYRYTYEYDYWGQGTQVTVSS,low polyreactivity
4,EEELVESGGGLVQAGGSLRLSCAASGRTFVYNAMGWYRQAPGTERELVAAITSGDSTYYADSVKGRFTISRDNAKNTVYLQMNSLKPEDTAVYYCATDYSGIFYWYDYWGQGTQVTVSS,low polyreactivity
5,EEELVESGGGLVQAGGSLRLSCAASGRTLAGYPMGWYRQAPGKERELVAAISSSGGSTYYADSVKGRFTISRDNAKNTVYLQMNSLKPEDTAVYYCNRYSSYIPYPYNYWGQGTQVTVSS,high polyreactivity
6,EEELVESGGGLVQAGGSLRLSCAASGSIFTHYAMGWYRPAPGKERELVAAISWSGGSTYYADSVKGRFTISRDNAKKTVYLQMNSLKPEDTAVYYCAAETYWGDDYWGQGTQVTVSS,high polyreactivity
7,EEELVESGGGLVQAGGSLRLSCAATGSIFVVNAMRWYRQAPGKERELVAAIARGGITNYADSVKGRFTISRDNAKNTVYLQMNSLKPEDTAVYYCNARGSRWVKPDRDYWGQGTQVTVSS,low polyreactivity
8,EEELVESGGGLVQAGVSLRISCAASGSIFNYNAMGWYRQAPGKERELVAAISRGGTTNYADSVKGRFTISRDNANNTVYLQMNSLKPEDTAVYYCAAKAYDYYGPVYYWGQGSQVTVSS,high polyreactivity
9,EVQLVESGGGLFQAGGSLRLSCAASGFTFYRYAMGWYRQAPGKERELVAGITWGGGRTYYADSVKGRFTISRDNAKNTVYFQMNSLKPEATAVYYCAAYYSQDSRRKYDYWGQVTQVTVSS,high polyreactivity
10,EVQLVESGGGLVQAGGSLRLSCAASGSIFSFYAMGWYRQAPGKERELVAAISRSAGRTYYADSVKGRFTISRDNATNTVYLQRNSLKPEDTAVYYCNKASWYNGEMDYWGQGTQVTVSS,high polyreactivity
11,EVQLVESGGGLVQAGGSLRLSCAASGSIYGSYAKGWYRQAPGKERELVAGITYRGSSTYYADSVKGRFTISRDNAKYTVYLLMNSLKPEDTAVYYCAADPVFDEYDYWGQGTQVTVSS,low polyreactivity
12,EVQLVESGGGLVQPGGSLRLSCAASGYIYSRYRMGWYRQAPGKGREFVAAISGGSSTTYADSVKGRFTISRDNSKNTVYLQMNSLRAEDTAVYYCAAYKIDSDPRVYWGQGTQVTVSS,low polyreactivity
13,EVQLVESRGGLVQAGGSLRLSCAASGSILVGYAMGWYRQAPGKERELVAAISFSGGSTYYADSVKGRFTISRDNAKNTVFLQLNSLKPEDTAVYYCASKRRVWIFYSSSDDYWGQGTQVTVSS,low polyreactivity
14,HAQLQESGGGLVQAGGSLRRSCAASGSIFRFSRMGWYRRAPGKERELVASIGFGSITYYADRVKGRFTISRDNANNTVYLQMNSLKPEDTAVYYCAVQVQDESWLDYWGQGTQVTVSC,low polyreactivity
15,HAQLQESGVGLVQAGGSLRRSCAASGSIFRFSGMGWYRRAPGKERELVASIGFGSITYYADRVKGRFTISRDNANNTEYLQMNSLKPEDTAVYYCAVQVQDESWLDYWGQGTQVTVSC,low polyreactivity
16,HDQLVESAAGLVQAGGSLRLSCAASVLTFYQNALGWYRQAAGKEMEFVAAISRRGGSTYYADSVKGRFTISRDNAKNTVYLQMNSLKPEDTAVYYCAADYKRKSDGDYWGQGTQVTVSS,high polyreactivity
17,HDQLVESGGGFVQAGGSLRLSCAASGSIFRYNPMGWYRQAPGKEMELVAAISYGGGITRYADSVKGRFTISRDNAKNTVYLQMNSLKPEDTAVYYCNKAYVWRRMDYWGQGTQVTVSS,high polyreactivity
18,HDQLVESGGGLVEAGGSLRLSCAASGITFKGYAMGWYRPAPGKERELVAAITSGGSTKYADSVKGRFTSSRDNAKNTVYLQMNSLKPEDTAVYYCAAAVVNYGWWTYGYYGFGYWGQGTQVTVSS,high polyreactivity
19,HFQLVEAGGGLVQAGGSLSLSCADSGRTYSHYAMGWYSQAPAQVRELVAGISSGSRTNYADSVKGRFTISRDNAKNTVYLQMNSLKPEDTAFYYCAARTNYLKGGYWGQGTQVTVSS,high polyreactivity
20,HGQLVDSGGGLVQAGGSLRLICAASGYTYYDYAMGRYREAPGKEMELVADISTSDGSTFYADSVKGRFTISRDNAKNTVYLQMNSLKPEDTAVYYCNTDGSLGLYDWFWPSNNDYWGQGTQVTVSS,low polyreactivity
21,HLQLEESGVGLVQAGGSLRLSCAASGSTFTFNAMGWYRQAPAKSRELVAAIRWNGESTYYADSVKGRFSISRDNAKNTVYIQMNSLNPEDTAVYYCAATRLLSKSGDRYYYWGQGTQVTVSS,low polyreactivity
22,HVHLQESGGGLVQAGGSLRLSCAASGSINDETYMAWYRQAPGKERELVATIDSGSTTNYADSVKGRITISRDNAKNTVYLQMNSLKPEDTAVYYCAAADSHIDYFDYWGQGSQVTVSS,low polyreactivity
23,HVHLVESGGGLVQAGGRLRLTCAASGRTFQKYAMGWYREAPRKERELVAAITTSGGSTYYADSVKGRFTISRDYAKYTVYLQMNSLKPEDTAVYYCNKAYAYAGHDYDWGQGTKVTVSS,high polyreactivity
24,HVLLVESGGGLVQAGGSLLLSCAASGSPFYTNAMVGFRKAPGKEREVVASITDGGDSTQYADSVKGRFTISRDYAKNTVYLQMNSLKPEDTAVYYCAVDYHYFQEYDTWGQGTQVTVSS,low polyreactivity
25,HVQLEESGGGLVQAGGSLRLTCAASGSIFYAYAMGWYIPATGKERELVAVISNGGGSTYYADSVKGRFTISRDNSKNSVYLQMNSVKPEDTAVYFCAAVLAESVYYSDYDYWGQGTQVTVSS,low polyreactivity
26,HVQLEESGRGLVQAGGSLRLSCAASGRTFTSNAIGWYRQAPGKERELVAVITSGGSTNYADSVKGRFTISRDNAMNTVYLQMNSLKPEDTAVYYCNARSGRGQAYGYWGQGTQVTVSS,high polyreactivity
27,HVQLQESAGGLVQAGASLRLSCAPSGNISYSRNMGWYRQAPGKERELVAAIDRGAITYYADSVKGRFTISRDNEKNTVYLQIFSLKPEDTAVYYCAAVYHDRWDHRYWGQGTQVTVSS,high polyreactivity
28,HVQLQESGGGLVQAGGSLRLICAASGNIVDDDIMGWYRQAPGKEREIVASITDGGSTNYADSLKGRFTISRDNAKNTVYQQMNILIREVTAVYYCAAIAYPDIPTYFVYDSDSFYWGQGTQETVSS,high polyreactivity
29,HVQLQESGGGLVQAGGSLRLSCAASGNISYSRNMGWYRQAPGKERELVAAIDRGAITYYADSVKGRFTISRDNAKNTVYLQIYSLKPEDTAVYYCAAEYHDRWDHRYWGQGTQVTVSS,high polyreactivity
30,HVQLQESGGGLVQAGGSMRLSCAESGSISELRPMGLYRKAPGKERELVAGISTGGSTNYADSVKGRFTISLDNAKNTVYLQMNSLKPEYTAVYFCAAASYCEGTYDYWGQGTQVTVRS,high polyreactivity
